The assay has as its target FGFR/β-Klotho receptor complex. Kind of assay: cell-based or functional assay.

Substance “Native FGF21 (from UniProt Q9NSA1 29-209) (ligand)” had an FGF21 activity EC50 (luciferase reporter) of 0.12 nM.
